The target of test [1] is T1, porcine citrate synthase (CS) (Sus scrofa, UniProt P00889).
T1 construct: purchased
T1 sequence (P00889 28-464): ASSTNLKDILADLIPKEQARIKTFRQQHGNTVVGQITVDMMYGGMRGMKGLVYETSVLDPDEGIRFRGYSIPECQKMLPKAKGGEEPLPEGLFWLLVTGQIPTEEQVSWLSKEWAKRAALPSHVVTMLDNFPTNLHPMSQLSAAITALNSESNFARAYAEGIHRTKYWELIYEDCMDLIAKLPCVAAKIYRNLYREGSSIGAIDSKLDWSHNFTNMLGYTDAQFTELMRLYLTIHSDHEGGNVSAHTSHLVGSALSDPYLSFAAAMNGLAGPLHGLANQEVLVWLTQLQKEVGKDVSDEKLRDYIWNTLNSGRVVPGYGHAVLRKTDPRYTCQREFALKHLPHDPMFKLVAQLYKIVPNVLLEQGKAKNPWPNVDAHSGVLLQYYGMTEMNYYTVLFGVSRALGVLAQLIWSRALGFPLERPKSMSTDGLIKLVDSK
As to the kind of experiment: Protein pin array interaction with citrate synthase. The class given is binding. As to conditions: CS as target protein, unheated and pre-heated. An excerpt:
(§1) Synthesis of Pins, binding and detection of peptides binding to ligand proteins. The αB crystallin protein pin array was used to measure the interaction between peptides and chaperone target proteins including bovine βH crystallin, human γD crystallin, equine alcohol dehydrogenase (ADH) and porcine citrate synthase (CS) as described (FIG. 12). Ghosh and Clark, Protein Sci 14: 684-95, 2005.
(§2) Refer to the methods section for detailed protocols. The absorbance corresponding to the blue coloration in each well was measured at λ=450 nm and plotted against the amino acid sequence of the corresponding peptide in that well (FIGS. 13 and 14). Wells containing peptides that have strong interactions with target proteins are dark blue and wells containing peptides that have weak or no interaction with target proteins are light blue or clear.
(§3) The purity of the target proteins used in the pin array assays, bovine βH crystallin, human γD crystallin, equine alcohol dehydrogenase (ADH) and porcine citrate synthase (CS) were determined to be >90% by SDS-PAGE. In addition, primary antibodies for each target protein were specific to that target protein and consequently contaminating proteins that may bind to the peptides will not be detected. Eighty-four sequential and overlapping peptide fragments corresponding to residues 1-175 of human αB crystallin were synthesized employing a simultaneous peptide synthesis strategy developed by Geysen, called Multipin Peptide Synthesis (Mimotopes, San Diego, Calif.). Geysen, Southeast Asian J Trop Med Public Health 21: 523-33, 1990; Chin et al., J Org Chem 62: 538-539, 1997. Peptides were immobilized on derivatized polyethylene pins arranged in a microtiter ELISA plate format. Each peptide was eight amino acids in length and consecutive peptides were offset by two amino acids. All peptides were bound covalently to the surface of the plastic pins. The first peptide was […] for human αB crystallin.
(§4) Ghosh and Clark, Protein Sci 14: 684-95, 2005. […] The intensity of the blue color in the wells was measured at 450 nm using an ELISA plate-reader (BioTek, Winooski, Vt.). The intensity of the blue color (plotted on the X-axis) was a measure of the interaction between αB crystallin peptides (plotted on the Y-axis) and target proteins. To measure the effect of temperature on the interactions between interactive peptides and the target proteins, the target proteins were heated in a water-bath at 45° C. for fifteen minutes prior to use. Pin arrays are unable to differentiate between monomers, dimers or oligomers of target proteins that exist in solution. Instead, pin arrays are very sensitive detectors of interactions between individual peptides and the entire population (monomers, dimers or oligomers) of specific target proteins that may exist in solution under specific conditions. Each target protein was assayed two to five times. A single pin array was used for all experiments and no change in interactions was observed after more than thirty repetitions. The last three peptides of the protein pin array, 163REEKPAVT170, 165EKPAVTAA172, 167PAVTAAPK174, correspond to the epitope (163REEKPAVTAAPKK175) recognized by the primary antibody for human αB crystallin. A positive reaction is observed for these three peptides in the absence of human αB crystallin as the ligand due to direct binding of the anti-human αB crystallin antibody to these three peptides. The loss of efficiency for the pin array was measured using this assay. The loss of efficiency for the pin array was determined to be <5% by after more than 30 assays.
(§5) The Y-axis lists the amino acid sequences of the 8-mer peptides that are immobilized sequentially in a 96-well format. […]

Test [2] addresses T2, equine alcohol dehydrogenase (ADH) (Equus caballus, UniProt P00327).
T2 construct: purchased
Nature of the test: Protein pin array interaction with alcohol dehydrogenase. As to conditions: ADH as ligand, unheated and pre-heated. It counts as binding.
Excerpt: as §1, §2, §3, §4, §5

The target of test [3] is T3, γD crystallin (Homo sapiens, UniProt P07320).
T3 sequence (P07320 1-174): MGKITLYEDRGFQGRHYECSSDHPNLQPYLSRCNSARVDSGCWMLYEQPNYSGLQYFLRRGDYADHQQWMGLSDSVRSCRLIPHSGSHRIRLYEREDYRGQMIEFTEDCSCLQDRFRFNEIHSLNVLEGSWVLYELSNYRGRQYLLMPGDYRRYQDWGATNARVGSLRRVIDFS
Nature of the test: Protein pin array interaction with γD crystallin. It counts as binding. More on the design: purchased. As to conditions: unheated γD crystallin; similar peptide sequences with γD crystallin pre-heated at 45° C. for fifteen minutes.
Excerpt: as §1, §2, §3, §4
(§6) The amino acid sequences of each 8-mer human αB crystallin peptide immobilized sequentially on 84 pins in a 96-well ELISA plate format are listed on the Y-axis. […]

Another test relates to bovine βH crystallin. Nature of the test: Protein pin array interaction with βH crystallin. The class given is binding. Conditions: unheated βH crystallin; similar maxima with βH crystallin pre-heated at 45° C. for fifteen minutes.
Excerpt: as §1, §2, §3, §4, §6

A further test deals with beta amyloid (Homo sapiens, UniProt P05067). As to the kind of experiment: αB crystallin protein pin array screened for binding to beta amyloid. Conditions: immobilized 8-mer peptide; absorption at 450 nm; assayed 2-5 times. An excerpt: αB Crystallin peptides that bind the target protein beta-amyloid were identified by screening an αB crystallin protein pin array, which provides a systematic method for evaluating interactions between peptides corresponding to residues 1-175 of human αB crystallin and selected target proteins in a parallel and simultaneous manner.
Peptides were synthesized on derivatized polyethylene pins arranged in a microtiter plate format. Each peptide was 8 amino acids in length and consecutive peptides were offset by 2 amino acids. All peptides were covalently bonded to the surface plastic pins. The first immobilized peptide was 1MDIAIHHP8 and the last peptide was 168PAVTAAPK175 for the human αB crystallin.
After synthesis, the pins were pre-coated at room temperature with 2% Bovine Serum Albumin (BSA), 0.1% Tween-20 and 0.1% Sodium azide in 10 mM phosphate buffered saline pH 7.2 (PBS) for 1 hr, and washed three times for 10 mins each with 10 mM PBS. To screen for binding to the peptides, fixed concentrations of the target protein beta amyloid was dissolved in 10 mM PBS, containing 0.05% Tween-20, added to each well and incubated for 1 hr at room temperature. The pin array was washed three times for 10 mins each with 10 mM PBS, containing 0.05% Tween-20. Monoclonal or polyclonal primary antibodies for the target protein beta amyloid was diluted into PBS buffer, added to each well and incubated for 1 hr at room temperature. Subsequently, the pin array was washed three times for 10 mins each with 10 mM PBS containing 0.05% Tween-20. Anti-rabbit horse-radish peroxidase conjugate secondary antibodies was diluted into PBS buffer, added to each well and incubated for 1 hr at room temperature. The pin array was washed three times for 10 mins each with 10 mM PBS containing 0.05% Tween-20. A chromogenic substrate of horse-radish peroxidase 3,3′,5,5′-Tetramethylbenzidine (TMB) (Pharmingen, San Diego, Calif.) which is colorless was added, and the reaction was carried out for 45 min.
The reaction was stopped by adding 6N sulfuric acid, which changes the color from blue to yellow. The absorption at 450 nm was measured by an ELISA reader (BioTek, Winooski, Vt.).
The pin array was regenerated by sonication in a water bath (VWR Aquasonic, West Chester, Pa.) with 100 mM PBS, containing 1% Sodium dodecyl sulfate (SDS) and 0.1% 2-Mercaptoethanol @ 60° C. for 10 mins. Next, the pin array was rinsed three times in deionized water, preheated to 60° C. for 30 secs each time, and shaken in water preheated at 60° C. for 30 min. The pin array was then washed with methanol at 60° C. for 15 secs and air-dried and stored @−20° C. for future use. Each target protein was assayed 2-5 times against the human αB crystallin protein pin array peptides to verify the reproducibility of the results. Peptides numbered 5, 7, 8, 9, 13, 19, 22, 23, 24, 27, 35, 38, 45, 51, 52, 56, 57, 61, 66, 71, 72, and 79 in Table 2 reproducibly tested positive in the protein pin assay.

The next test concerns βL crystallin. As to the kind of experiment: Chaperone assay, thermal aggregation of βL crystallin. The class given is biochemical. Conditions: light scattering at λ=340 nm; 1:10 target protein:peptide; comparison among five peptides. As for the experimental part:
Chaperone Assays. Chaperone assays of the five peptides were performed using previously established methods with minor modifications. Muchowski et al., J Mol Biol 289: 397-411, 1999. A 1:1 monomeric molar ratio of chaperone: target protein was determined to be the optimum ratio and all subsequent chaperone assays of the β3 mutants were performed in triplicate and at a 1:1 monomeric molar ratio of chaperone: target protein in a 96-well ELISA micro-titer plate. […] of the chaperone and βL crystallin were mixed in a total volume of 200 μL buffer (5 mM PBS, pH 7.0). Light scattering at λ=340 nm was measured using a Multiskan MCC/340 plate reader before heating (time=0). After the first reading, the plate was heated at 50° C. and readings were taken at fifteen minute intervals for one hour.
The ability of the peptides to suppress the thermal aggregation of βL crystallin was measured spectrophotometrically as light scattering at λ=340 nm from solutions containing 1:10 monomeric molar ratio of target protein: peptide.

The target in test [4] is T3, γD crystallin. As to the kind of experiment: γD crystallin ThioflavinT fluorescence (fibrillization of γD crystallin). The class given is biochemical. As to conditions: ThioflavinT fluorescence after 72 hrs; 1:1 γD crystallin:peptide; comparison among αB crystallin and five peptides. As for the experimental part:
γD crystallin Thioflaviin T fluorescence. γD crystallin fibrils were formed in a similar way to that of γ crystalline. Meehan et al., J Biol Chem 279: 3413-3419, 2004. Peptides were dissolved to […] IN tfe AND DILUTED to 0.91 mM stock solutions in 10% TFE, pH 2.0.
3.5 mg of ThioflavinT was dissolved in 100 μL of 50 mM Glycine pH 8.5. A stock solution of 1 mg/ml (0.22 mM) Aβ was prepared. 20 μl Aβ, 5 μl chaperone, 2 μl ThioflavinT was mixed with 73 μL 10% TFE, pH 2.0. Fluorescence was read using a Beckman Coultier DTX 880 multimode detector. Samples were heated at 50° C. for 72 hours and fluorescence was read again.
The fibrillization of γD crystallin was measured as fluorescence of the fluorescent dye ThioflavinT from solutions containing 1:1 monomeric molar ratio of γD crystallin:peptide. In the absence of fibrils ThioflavinT had little or no fluorescence. The fluorescence of the ThioflavinT bound to γD crystallin fibrils in the absence of any other molecule after 72 hrs was set to 100%. […] Fibril formation=ΔfluorescenceγD crystallin (with chaperone)*100/ΔfluorescenceγD crystallin (without chaperone).

T2 sequence (P00327 whole entry): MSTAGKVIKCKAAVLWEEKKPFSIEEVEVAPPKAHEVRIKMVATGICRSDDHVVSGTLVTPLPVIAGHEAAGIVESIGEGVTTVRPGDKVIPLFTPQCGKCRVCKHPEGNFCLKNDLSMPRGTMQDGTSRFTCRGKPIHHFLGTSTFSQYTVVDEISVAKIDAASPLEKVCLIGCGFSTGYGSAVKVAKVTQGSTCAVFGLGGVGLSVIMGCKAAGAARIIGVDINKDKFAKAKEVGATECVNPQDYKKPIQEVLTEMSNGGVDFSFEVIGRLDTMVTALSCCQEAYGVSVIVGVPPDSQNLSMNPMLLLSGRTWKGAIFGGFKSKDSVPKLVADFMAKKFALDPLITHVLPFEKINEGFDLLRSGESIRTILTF

For LTITSSLS [Peptide 66], the “absorbance at λ=450 nm, interaction with CS” value (“absorbance … with CS” below) in test [1] is “absorbance maxima”. For the same sequence, in test [2], the “absorbance at λ=450 nm, interaction with ADH” value (from here on “absorbance … with ADH”) is listed as “Maximum absorbances”. Further, in the test with γD crystallin [3], the “absorbance at λ=450 nm, interaction with γD crystallin” value (“absorbance … with γD crystallin” below) is “maximum absorbances”. Further, the “absorbance at λ=450 nm, interaction with βH crystallin” value (“absorbance … with βH crystallin” for short) in the test on bovine βH crystallin is “Maximum absorbances”. Further, the “protein pin assay result with target protein beta amyloid” value (from here on “protein pin assay result”) with beta amyloid is reported as “positive”.

In the case of ERTIPITRE, the “effect on the thermal aggregation of βL crystallin (chaperone activity)” value with βL crystallin is listed as “slightly lower than the HG peptide”.

Consider FSVNLDVK [Peptide 38], for which, in test [1], the “absorbance … with CS” value was “absorbance maxima”. For the same sequence, the “absorbance … with ADH” value in test [2] is on record as “Maximum absorbances”. Besides, in the test with γD crystallin [3], the “absorbance … with γD crystallin” value is reported as “maximum absorbances”. Besides, the “absorbance … with βH crystallin” value in the test with bovine βH crystallin is reported as “Maximum absorbances”. In addition, in the test with beta amyloid, the “protein pin assay result” value is listed as “positive”.

In the case of WIRRPFFP [Peptide 5], the “absorbance … with CS” value in test [1] is “absorbance maxima”. Besides, the “absorbance … with ADH” value in test [2] is “Maximum absorbances”. Moreover, the “absorbance … with γD crystallin” value in the test with γD crystallin [3] is on record as “maximum absorbances”. Also, the “absorbance … with βH crystallin” value in the test with bovine βH crystallin was “Maximum absorbances”. The “protein pin assay result” value with beta amyloid is reported as “positive”.

For the sequence STSLSPFYLRPPSFLRAP, the “effect on the thermal aggregation of βL crystallin (chaperone activity)” value in the test with βL crystallin is “weakest effect”. In the test with γD crystallin [4], the “effect on the fibrillization of γD crystallin” value was “strongest effect”.
